Test results reported in publication PMC11429203 (Biomimetics, 2024).

B1: ACSAG (A-pep) (peptide)
peptide: ACSAG
notes: Unconjugated peptide (no DOX, no fluorescein) in the SPR and antibody-staining experiments; also called ACSAG peptide; source: synthetic peptide, custom-ordered from GenScript
B2: ACSAGLPHVLTPEAGATGASCA (Trimer-pep) (peptide)
peptide: ACSAGLPHVLTPEAGATGASCA
notes: Newly designed fusion peptide of 22 residues; also called fusion trimer peptide; source: synthetic peptide, custom-ordered from GenScript

Target: T1, human FGFR2 protein (His-tag) residue 403-822 (human, UniProt P21802-3 403-822)
T1 construct: fibroblast growth factor receptor 2 (FGFR2), human, residues 403-822 (cytoplasmic part with the kinase domain); docking used residues 461-763 of PDB 7OZY, another construct; also called FGFR2 kinase domain; FGFR2 protein kinase domain; source: bought: Thermo Fisher Scientific
Assay: SPR; FGFR2 (10 µg/mL) coupled through NHS/EDAC to 11-mercaptoundecanoic acid on gold chips; peptides flowed at 50 nM, 100 nM, 1 µM, 50 µM and 100 µM in 1X PBS, 30 µL/min, 2000 s; KD by non-linear regression, mean of three runs
Conditions: both partners purified

T1 sequence (P21802 402-821): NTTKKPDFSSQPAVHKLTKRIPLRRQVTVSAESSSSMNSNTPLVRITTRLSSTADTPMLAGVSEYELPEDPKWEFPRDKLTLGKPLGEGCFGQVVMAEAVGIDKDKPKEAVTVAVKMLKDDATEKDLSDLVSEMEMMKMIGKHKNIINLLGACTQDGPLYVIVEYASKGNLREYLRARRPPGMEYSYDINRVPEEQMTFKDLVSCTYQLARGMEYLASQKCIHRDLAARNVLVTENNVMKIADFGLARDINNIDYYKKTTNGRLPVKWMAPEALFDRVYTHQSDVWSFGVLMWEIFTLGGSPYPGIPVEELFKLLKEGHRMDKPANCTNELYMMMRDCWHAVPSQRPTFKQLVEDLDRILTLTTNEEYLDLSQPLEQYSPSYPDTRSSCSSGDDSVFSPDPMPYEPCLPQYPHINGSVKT

Binder | Kd
B1 | 14.1 µM
B2 | 7.53 µM
